The record followed here is publication PMC7046727.

Assay [1] addresses sLif, soluble form of Pseudomonas aeruginosa lipase-specific foldase Lif that lacks the transmembrane domain (TMD) (Pseudomonas aeruginosa). Kind of assay: other fluorescence titration; sLif / sLif_(Y99A) labelled with BDP FL (1.2 nM label, total about 24 nM) with 0-50 uM LipA overnight at 4 °C in 10 mM glycine buffer pH 9; steady-state anisotropy and average translational diffusion time (FCS) on a confocal microscope (sLif_(Y99A): diffusion time only); 1:1 binding model; apparent KD.

The target of assay [2] is sLif_(Y99A), variant of soluble P. aeruginosa Lif with Y99 mutated to alanine (Pseudomonas aeruginosa). The assay is described as above.

Turning to “lipase LipA of Pseudomonas aeruginosa, pre-active form refolded in vitro (enzyme)”, the Kd amounted to 29 nM in assay [1] and 77 nM in assay [2].
